Laboratory results taken from IntAct's records for PubMed 20871592.

B1: M-phase phosphoprotein 8 (Homo sapiens), Q99549 (parent)
chain: MEQVAEGARVTAVPVSAADSTEELAEVEEGVGVVGEDNDAAARGAEAFGDSEEDGEDVFEVEKILDMKTEGGKVLYKVRWKGYTSDDDTWEPEIHLEDCKEVLLEFRKKIAENKAKAVRKDIQRLSLNNDIFEANSDSDQQSETKEDTSPKKKKKKLRQREEKSPDDLKKKKAKAGKLKDKSKPDLESSLESLVFDLRTKKRISEAKEELKESKKPKKDEVKETKELKKVKKGEIRDLKTKTREDPKENRKTKKEKFVESQVESESSVLNDSPFPEDDSEGLHSDSREEKQNTKSARERAGQDMGLEHGFEKPLDSAMSAEEDTDVRGRRKKKTPRKAEDTRENRKLENKNAFLEKKTVPKKQRNQDRSKSAAELEKLMPVSAQTPKGRRLSGEERGLWSTDSAEEDKETKRNESKEKYQKRHDSDKEEKGRKEPKGLKTLKEIRNAFDLFKLTPEEKNDVSENNRKREEIPLDFKTIDDHKTKENKQSLKERRNTRDETDTWAYIAAEGDQEVLDSVCQADENSDGRQQILSLGMDLQLEWMKLEDFQKHLDGKDENFAATDAIPSNVLRDAVKNGDYITVKVALNSNEEYNLDQEDSSGMTLVMLAAAGGQDDLLRLLITKGAKVNGRQKNGTTALIHAAEKNFLTTVAILLEAGAFVNVQQSNGETALMKACKRGNSDIVRLVIECGADCNILSKHQNSALHFAKQSNNVLVYDLLKNHLETLSRVAEETIKDYFEARLALLEPVFPIACHRLCEGPDFSTDFNYKPPQNIPEGSGILLFIFHANFLGKEVIARLCGPCSVQAVVLNDKFQLPVFLDSHFVYSFSPVAGPNKLFIRLTEAPSAKVKLLIGAYRVQLQ

Variants of: B1
Conditions: with h31_human H3C1, P68431

Variant	effect of a mutation on the interaction
W80A	disrupting interaction
